{"source": "paper PMC3325216", "experiment_in_all_cases": "ELISA; wt or alanine-mutant E2 from 293T lysate captured by GNA on microtiter plates, amount normalised by CBH-17 binding; CD81-LEL added at 20 µg/ml; bound CD81-LEL detected with anti-CD81; percent relative to wt", "key": {"[1]": {"target": "H77C E1E2 mutant K446A (hepatitis C virus genotype 1a, isolate H77C)"}, "[2]": {"target": "H77C E1E2 mutant N428A (hepatitis C virus genotype 1a, isolate H77C)"}, "[3]": {"target": "H77C E1E2 mutant Y443A (hepatitis C virus genotype 1a, isolate H77C)"}}, "data": [{"substance": "CD81 large extracellular loop fused to glutathione S-transferase (from UniProt P60033 1-236) (domain or fragment)", "values": [{"measurement": "percent CD81 binding relative to wt", "setting": "[1]", "value": 83, "unit": "%"}, {"measurement": "percent CD81 binding relative to wt", "setting": "[2]", "value": 10, "unit": "%"}, {"measurement": "percent CD81 binding relative to wt", "setting": "[3]", "value": 20, "unit": "%"}]}]}
